Assay [1] deals with podoplanin expressed on brain tumor cells (Homo sapiens, UniProt Q86YL7). Nature of the assay: flow cytometry on cells. (In general: Flow cytometry measures light scatter and fluorescence of single cells or particles in a stream.)
In assay [2] the target is T1, biotinylated podoplanin peptide (hpp38-51) (Homo sapiens, UniProt Q86YL7, also: biotin, position not given here).
T1 chain: EGGVAMPGAEDDVV
Put plainly: SPR.

In PMC3809846 (International journal of cancer. Journal international du …, 2012) one finds binding result and Ka data, which are given here for two molecules.

No end group written: not given here.

Sequence of podoplanin expressed on brain tumor cells (Q86YL7 23-162): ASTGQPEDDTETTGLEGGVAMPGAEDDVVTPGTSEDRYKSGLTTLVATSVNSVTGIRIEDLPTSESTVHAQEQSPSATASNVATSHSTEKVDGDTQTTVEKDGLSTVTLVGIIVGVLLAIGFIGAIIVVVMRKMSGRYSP

B1: NZ-1 monoclonal antibody (antibody, V domains shown)
VH: EVQLVESGGGLVQPGRSLKLSCAASGFTFSNYGMAWVRQTPTKGLEWIASISAGGDKTYYGDSVKGRFSISRDNAKTTHYLQMDSLRSEDTATYYCAKTSRVYFDYWGQGVMVTVSS
VL: QFVLTQPNSVSTNLGSTVKLSCKRSTGNIGSNYVNWYQQHEGRSPTTMIYRDDKRPDGVPDRFSGSIDRSSNSALLTINNVQTEDEADYFCHSYSSGIVFGGGTKLTVL
In the case of B1, the binding result in assay [1] is “binds”.

B2: NZ-1-(scdsFv) (scFv, V domains shown)
VH: EVQLVESGGGLVQPGRSLKLSCAASGFTFSNYGMAWVRQTPTKCLEWIASISAGGDKTYYGDSVKGRFSISRDNAKTTHYLQMDSLRSEDTATYYCAKTSRVYFDYWGQGVMVTVSS
VL: QFVLTQPNSVSTNLGSTVKLSCKRSTGNIGSNYVNWYQQHEGRSPTTMIYRDDKRPDGVPDRFSGSIDRSSNSALLTINNVQTEDEADYFCHSYSSGIVFGGCTKLTVL
On to B2, for which the Ka in assay [2] was determined as 4.8e+07 M⁻¹.
